To fix the notation:
B1: Mothers against decapentaplegic homolog 4 (Homo sapiens), Q13485 (parent)
chain: MDNMSITNTPTSNDACLSIVHSLMCHRQGGESETFAKRAIESLVKKLKEKKDELDSLITAITTNGAHPSKCVTIQRTLDGRLQVAGRKGFPHVIYARLWRWPDLHKNELKHVKYCQYAFDLKCDSVCVNPYHYERVVSPGIDLSGLTLQSNAPSSMMVKDEYVHDFEGQPSLSTEGHSIQTIQHPPSNRASTETYSTPALLAPSESNATSTANFPNIPVASTSQPASILGGSHSEGLLQIASGPQPGQQQNGFTGQPATYHHNSTTTWTGSRTAPYTPNLPHHQNGHLQHHPPMPPHPGHYWPVHNELAFQPPISNHPAPEYWCSIAYFEMDVQVGETFKVPSSCPIVTVDGYVDPSGGDRFCLGQLSNVHRTEAIERARLHIGKGVQLECKGEGDVWVRCLSDHAVFVQSYYLDREAGRAPGDAVHKIYPSAYIKVFDLRQCHRQMQQQAATAQAAAAAQAAAVAGNIPGPGSVGGIAPAISLSAAAGIGVDDLRRLCILRMSFVKGWGPDYPRQSIKETPCWIEIHLHRALQLLDEVLHTMPIADPQPLD
partner: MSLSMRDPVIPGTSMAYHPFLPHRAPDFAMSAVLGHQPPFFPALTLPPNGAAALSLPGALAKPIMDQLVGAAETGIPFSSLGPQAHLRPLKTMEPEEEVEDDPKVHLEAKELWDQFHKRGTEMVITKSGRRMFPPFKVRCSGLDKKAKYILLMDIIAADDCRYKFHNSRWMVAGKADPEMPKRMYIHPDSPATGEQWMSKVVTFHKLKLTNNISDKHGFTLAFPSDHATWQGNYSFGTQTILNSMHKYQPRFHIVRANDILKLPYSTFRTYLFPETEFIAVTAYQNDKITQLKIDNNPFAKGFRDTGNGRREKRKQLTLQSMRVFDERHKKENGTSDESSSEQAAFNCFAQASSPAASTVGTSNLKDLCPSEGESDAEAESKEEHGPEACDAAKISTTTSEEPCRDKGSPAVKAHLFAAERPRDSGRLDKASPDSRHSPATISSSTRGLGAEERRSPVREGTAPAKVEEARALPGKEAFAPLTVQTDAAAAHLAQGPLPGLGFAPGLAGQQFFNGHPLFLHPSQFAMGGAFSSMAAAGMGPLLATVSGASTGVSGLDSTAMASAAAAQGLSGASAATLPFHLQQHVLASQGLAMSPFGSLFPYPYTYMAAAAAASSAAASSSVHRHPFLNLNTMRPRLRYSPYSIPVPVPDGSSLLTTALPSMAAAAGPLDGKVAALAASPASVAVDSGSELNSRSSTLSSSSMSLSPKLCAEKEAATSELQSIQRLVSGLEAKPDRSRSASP
B2: Mothers against decapentaplegic homolog 4 (Homo sapiens), Q13485 (parent)
chain: B1 chain
partner: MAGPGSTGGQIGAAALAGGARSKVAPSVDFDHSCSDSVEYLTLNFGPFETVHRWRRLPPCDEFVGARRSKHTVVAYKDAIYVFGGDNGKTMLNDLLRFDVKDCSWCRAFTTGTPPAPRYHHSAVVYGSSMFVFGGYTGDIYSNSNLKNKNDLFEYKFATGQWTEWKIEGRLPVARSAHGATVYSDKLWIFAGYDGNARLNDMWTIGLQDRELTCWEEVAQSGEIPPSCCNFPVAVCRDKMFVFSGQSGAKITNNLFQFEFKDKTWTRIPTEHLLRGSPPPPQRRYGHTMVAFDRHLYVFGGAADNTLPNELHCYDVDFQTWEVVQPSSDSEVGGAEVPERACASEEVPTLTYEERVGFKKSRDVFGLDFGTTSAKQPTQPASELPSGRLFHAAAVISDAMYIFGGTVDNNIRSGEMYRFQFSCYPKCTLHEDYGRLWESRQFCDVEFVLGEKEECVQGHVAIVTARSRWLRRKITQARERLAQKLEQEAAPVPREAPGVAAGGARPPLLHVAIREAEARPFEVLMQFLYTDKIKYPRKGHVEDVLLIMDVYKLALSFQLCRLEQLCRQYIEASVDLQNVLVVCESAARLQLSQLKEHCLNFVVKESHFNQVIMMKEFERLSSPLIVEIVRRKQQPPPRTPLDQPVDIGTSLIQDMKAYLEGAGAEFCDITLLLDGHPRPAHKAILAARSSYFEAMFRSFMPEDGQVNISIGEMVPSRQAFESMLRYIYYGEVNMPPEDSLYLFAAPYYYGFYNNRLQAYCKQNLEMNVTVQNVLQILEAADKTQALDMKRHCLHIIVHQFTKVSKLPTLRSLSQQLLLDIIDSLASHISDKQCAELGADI
B3: Mothers against decapentaplegic homolog 4 (Homo sapiens), Q13485 (parent)
chain: B1 chain
partner: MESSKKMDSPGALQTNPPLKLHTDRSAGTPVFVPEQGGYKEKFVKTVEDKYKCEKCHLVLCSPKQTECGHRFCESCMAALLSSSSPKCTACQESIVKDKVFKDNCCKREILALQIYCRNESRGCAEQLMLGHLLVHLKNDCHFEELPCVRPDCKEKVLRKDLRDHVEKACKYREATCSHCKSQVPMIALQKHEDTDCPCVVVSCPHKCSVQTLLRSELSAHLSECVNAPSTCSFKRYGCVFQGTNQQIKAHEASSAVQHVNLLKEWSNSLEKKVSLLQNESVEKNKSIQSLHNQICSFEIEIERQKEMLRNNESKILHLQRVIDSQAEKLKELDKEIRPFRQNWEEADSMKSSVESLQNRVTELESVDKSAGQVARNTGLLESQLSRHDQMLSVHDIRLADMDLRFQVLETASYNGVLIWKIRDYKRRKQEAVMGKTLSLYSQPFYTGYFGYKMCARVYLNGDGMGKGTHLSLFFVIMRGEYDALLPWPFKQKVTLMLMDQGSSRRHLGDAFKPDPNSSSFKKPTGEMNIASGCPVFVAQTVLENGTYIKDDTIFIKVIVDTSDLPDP
B4: Mothers against decapentaplegic homolog 4 (Homo sapiens), Q13485 (parent)
chain: B1 chain
partner: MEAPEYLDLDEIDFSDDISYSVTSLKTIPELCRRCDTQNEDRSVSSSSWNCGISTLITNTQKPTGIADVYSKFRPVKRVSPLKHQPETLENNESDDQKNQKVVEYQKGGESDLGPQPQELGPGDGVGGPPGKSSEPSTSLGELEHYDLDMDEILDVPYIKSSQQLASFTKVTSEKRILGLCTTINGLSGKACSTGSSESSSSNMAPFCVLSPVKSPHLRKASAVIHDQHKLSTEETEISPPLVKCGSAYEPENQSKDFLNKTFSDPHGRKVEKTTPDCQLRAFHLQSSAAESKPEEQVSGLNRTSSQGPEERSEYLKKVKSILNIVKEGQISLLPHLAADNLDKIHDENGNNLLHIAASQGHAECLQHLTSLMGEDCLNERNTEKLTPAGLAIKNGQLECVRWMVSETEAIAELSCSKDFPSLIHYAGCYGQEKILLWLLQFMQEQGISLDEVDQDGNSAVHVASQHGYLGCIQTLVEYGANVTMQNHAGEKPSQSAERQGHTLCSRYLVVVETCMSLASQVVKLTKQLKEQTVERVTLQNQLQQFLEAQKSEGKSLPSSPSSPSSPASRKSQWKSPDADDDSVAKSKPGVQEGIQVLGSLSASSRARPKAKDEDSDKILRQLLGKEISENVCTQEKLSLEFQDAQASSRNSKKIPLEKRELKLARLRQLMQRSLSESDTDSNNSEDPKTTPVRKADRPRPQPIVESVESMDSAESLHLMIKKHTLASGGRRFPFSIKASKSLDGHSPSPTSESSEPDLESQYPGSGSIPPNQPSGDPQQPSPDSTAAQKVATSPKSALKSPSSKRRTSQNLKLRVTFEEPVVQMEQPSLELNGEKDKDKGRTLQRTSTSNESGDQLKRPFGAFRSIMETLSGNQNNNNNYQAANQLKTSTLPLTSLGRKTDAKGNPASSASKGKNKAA

One test covers variants of B1. The note with it: with tbx3_human TBX3, O15119.
Turning to G386D, the “effect of a mutation on the interaction” value is “with no effect”.

Variants of B2 are the subject of another test. The note with it: with lztr1_human LZTR1, Q8N653.
As to D351H, the “effect of a mutation on the interaction” value is listed as “with no effect”.

In another test the parent is B2. The following applies: with lztr1_human LZTR1, Q8N653. The source holds these as a separate data set.
In the case of G386D, the “effect of a mutation on the interaction” value is given as “with no effect”.

The variants in the next test derive from B2. The following applies: with lztr1_human LZTR1, Q8N653. The source holds these as a separate data set.
As to R361H, the “effect of a mutation on the interaction” value is “with no effect”.

Variants of B2 are the subject of the next test. The following applies: with lztr1_human LZTR1, Q8N653. The source holds these as a separate data set.
For the variant R361H, the “effect of a mutation on the interaction” value is reported as “decreasing interaction strength”.

Regarding R361C, the “effect of a mutation on the interaction” value was “decreasing interaction strength”.

Variants of B2 are the subject of a further test. The note with it: with lztr1_human LZTR1, Q8N653. The source holds these as a separate data set.
Turning to R361C, the “effect of a mutation on the interaction” value is “with no effect”.

The variants in another test derive from B3. The following applies: with traf3_human TRAF3, Q13114.
Take G386D: the “effect of a mutation on the interaction” value was “with no effect”.

Variants of B3 are the subject of the next test. The following applies: with traf3_human TRAF3, Q13114. The source holds these as a separate data set.
Regarding R361C, the “effect of a mutation on the interaction” value is reported as “with no effect”.

Variants of B3 are the subject of a further test. The note with it: with traf3_human TRAF3, Q13114. The source holds these as a separate data set.
On to R361H, for which the “effect of a mutation on the interaction” value was “with no effect”.

In another test the parent is B3. The note with it: with traf3_human TRAF3, Q13114. The source holds these as a separate data set.
D351H: the “effect of a mutation on the interaction” value is “with no effect”.

Variants of B4 are the subject of the next test. The following applies: with sncap_human SNCAIP.
Consider D351H, for which the “effect of a mutation on the interaction” value is recorded as “with no effect”.

These data come from IntAct's records for PubMed 35512704.
